Measured values from article PMC8666670, “Malonyl-acyl carrier protein decarboxylase activity promotes fatty acid and cell envelope biosynthesis in Proteobacteria” (The Journal of Biological Chemistry, 2021).
Values belong to the substance of their own block, whether it stands above or below them.

Columns and labels:
[1] = molecular target: MadB(N45A) (S. oneidensis); assay: not stated; dimeric structures of the MadB catalytic loop mutants, data in Table S3
[2] = molecular target: MadB(N43A) (S. oneidensis); assay: as above
[3] = molecular target: MadB, standalone hot dog malonyl-ACP decarboxylase of Shewanella oneidensis (S. oneidensis); assay: SEC; gel filtration chromatography of the purified recombinant protein
[4] = molecular target: MadB, standalone hot dog malonyl-ACP decarboxylase of Shewanella oneidensis (S. oneidensis); assay: AUC; sedimentation analysis (methods: sedimentation velocity, 50,000 rpm, interference optics), 0.02 M Tris pH 7.5, 0.5 M NaCl, 20 °C, no reducing agents
[5] = molecular target: MadB(S54A) (S. oneidensis); assay: not stated; dimeric structures of the MadB catalytic loop mutants, data in Table S3
[6] = molecular target: MadB(T49A) (S. oneidensis); assay: as above
[7] = molecular target: MadB(H47A) (S. oneidensis); assay: as above
[8] = molecular target: MadB(D79A) (S. oneidensis); assay: as above

stoichiometry N [3]: 2
stoichiometry N [4]: 2
Substance: MadB, standalone hot dog malonyl-ACP decarboxylase of Shewanella oneidensis (enzyme)

stoichiometry N [5]: 2
Substance: MadB(S54A) (enzyme)

stoichiometry N [6]: 2
Substance: MadB(T49A) (enzyme)

stoichiometry N [7]: 2
Substance: MadB(H47A) (enzyme)

More lines, now with the values behind:

Substance: MadB(N45A) (enzyme)
stoichiometry N [1]: 2

Substance: MadB(N43A) (enzyme)
stoichiometry N [2]: 2

Substance: MadB(D79A) (enzyme)
stoichiometry N [8]: 2
